Reference: US20230041071A1 (NATIONAL INSTITUTE OF BIOLOGICAL SCIENCES BEIJING, published 2023)

T1: hAREG-EGFd-mFc (human; mouse, UniProt P15514 142-184)
T1 construct: Expressed in 293F cells; not shown: Fc fragment of mouse IgG2a
T1 chain: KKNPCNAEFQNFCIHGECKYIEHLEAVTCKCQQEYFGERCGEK


Target: T1, hAREG-EGFd-mFc
Assay: SPR, Biacore T200; mAb captured on anti-human Fc chip, antigen in solution
Description: To evaluate affinities of different mouse hybridoma mAbs or their humanized and engineered variants, SPR measurement was performed using Biacore T200 instrument. mAbs were captured on anti-human Fc CM5 biosensor chip surface, hAREG-EGFd-mFc, mAREG-EGFd-mFc or hAREG-98aa (purchased from PeproTech, cat #100-55B) in serial dilutions were injected over antibody-bound surface, followed by a dissociation phase. Association rates (Ka) and dissociation rates (Kd) were calculated using the one-to-one Langmuir binding model (BIA Evaluation Software, GE Life Sciences). The equilibrium dissociation constant (KD) was calculated as the ratio kd/ka.

Kd [nM] | koff [s⁻¹] | kon [M⁻¹ s⁻¹] | Binder
1.31 | – | – | ch1H9 (antibody, V domains shown, also called chimeric 1H9) VH: EVKLMESGGDLVKPGGSLKLSCVASGFTFSGYPMSWVRQTPEKRLEWVATISTGARHTYYPDSVKGRFTISRDNAKNTLYLQMSSLRSEDTAMYYCARHEGLRRGKYHCIMDYWGQGTSVTVSS VL: DILLTQSPASLAVSLGQRATISCKASQSIDYDGDSFLNWYQQKPGQPPKLLIYAASNLESGIPARFSGSGSGTDFTLNIHPVEEEDAATYYCHQCNEDPYMFGGGTKLEIR
0.205 | 0.000214 | 1.05e+06 | hu23H8v1 (antibody, V domains shown, Humanized 23H8; captured by anti-human Fc in SPR) VH: EVQLVESGGGLVKPGGSLRLSCAASGFTFNSYAMSWVRQAPGKGLEWVSTISTGGSHTYYPDSVKGRFTISRDNAKNSLYLQMNSLRAEDTAVYYCARHGYLLYDGYYEWYFDYWGQGTLVTVSS VL: DIVLTQSPASLAVSPGQRATITCRASESVDYDGHSFINWYQQKPGQPPKLLIYAASNKDTGVPARFSGSGSGTDFTLTINPVEAEDTANYYCQQSTEDPPYTFGQGTKLEIK
0.244 | 0.000249 | 1.02e+06 | hu23H8v2 (antibody, V domains shown, Humanized 23H8; captured by anti-human Fc in SPR) VH: EVQLVESGGGLVKPGGSLRLSCAASGFTFNSYAMSWVRQAPGKGLEWVSTISTGGSHTYYPDSVKGRFTISRDNAKNSLYLQMNSLRAEDTAVYYCARHGYLLYDGYYEWYFDYWGQGTLVTVSS VL: DIQMTQSPSSLSASVGDRVTITCRASQSVDYDGHSFLNWYQQKPGKAPKLLIYAASNLQSGVPSRFSGSGSGTDFTLTISSLQPEDFATYYCQQSTEDPPYTFGQGTKLEIK
0.178 | 0.000213 | 1.2e+06 | hu23H8v3 (antibody, V domains shown, Humanized 23H8; captured by anti-human Fc in SPR) VH: EVQLVESGGGLVKPGGSLRLSCAASGFTFNSYAMSWVRQAPGKGLEWVSTISTGGSHTYYPDSVKGRFTISRDNAKNSLYLQMNSLRAEDTAVYYCARHGYLLYDGYYEWYFDYWGQGTLVTVSS VL: DIVMTQSPDSLAVSLGERATINCKSSQSVDYDGHSFLNWYQQKPGQPPKLLIYAASNRESGVPDRFSGSGSGTDFTLTISSLQAEDVAVYYCQQSTEDPPYTFGQGTKLEIK
0.336 | 0.000276 | 821000 | hu23H8v4 (antibody, V domains shown, Humanized 23H8 variant; captured by anti-human Fc in SPR) VH: EVQLVESGGGLVKPGGSLRLSCAASGFTFSSYAMSWVRQAPGKGLEWVSTISTGGSHTYYPESVKGRFTISRDNAKNSLYLQMNSLRAEDTAVYYCARHGYLLYEGYYEWYFDYWGQGTLVTVSS VL: DIVLTQSPASLAVSPGQRATITCRASESVDYDGHSFINWYQQKPGQPPKLLIYAASNKDTGVPARFSGSGSGTDFTLTINPVEAEDTANYYCQQSTEDPPYTFGQGTKLEIK
0.565 | 0.000348 | 628000 | hu23H8v5 (antibody, V domains shown, Humanized 23H8 variant) VH: EVQLVESGGGLVKPGGSLRLSCAASGFTFSSYAMSWVRQAPGKGLEWVSTISTGGSHTYYPESVKGRFTISRDNAKNSLYLQMNSLRAEDTAVYYCARHGYLLYEGYYEWYFDYWGQGTLVTVSS VL: DIQMTQSPSSLSASVGDRVTITCRASQSVDYEGHSFLNWYQQKPGKAPKLLIYAASNLQSGVPSRFSGSGSGTDFTLTISSLQPEDFATYYCQQSTENPPYTFGQGTKLEIK
0.799 | 0.000233 | 291000 | hu1H9v1 (antibody, V domains shown, Humanized 1H9; captured by anti-human Fc in SPR) VH: EVQLVESGGGLVKPGGSLRLSCAASGFTFSGYPMSWVRQAPGKGLEWVSTISTGARHTYYPDSVKGRFTISRDNAKNSLYLQMNSLRAEDTAVYYCARHEGLRRGKYHSIMDYWGQGTLVTVSS VL: DIVLTQSPASLAVSPGQRATITCRASESVDYDGDSFINWYQQKPGQPPKLLIYAASNKDTGVPARFSGSGSGTDFTLTINPVEAEDTANYYCHQSNEDPYMFGQGTKLEIK
0.758 | 0.000184 | 243000 | hu1H9v4 (antibody, V domains shown, Humanized 1H9; captured by anti-human Fc in SPR) VH: EVQLVESGGGLVKPGGSLRLSCAASGFTFSGYPMSWVRQAPGKGLEWVSTISTGARHTYYPDSVKGRFTISRDNAKNSLYLQMNSLRAEDTAVYYCARHEGLRRGKYHSIMDYWGQGTLVTVSS VL: DIQMTQSPSSLSASVGDRVTITCRASQSIDYDGDSFLNWYQQKPGKAPKLLIYAASNLQSGVPSRFSGSGSGTDFTLTISSLQPEDFATYYCQQSNEDPYVFGQGTKLEIK
0.811 | 0.000206 | 254000 | hu1H9v5 (antibody, V domains shown, Humanized 1H9; captured by anti-human Fc in SPR) VH: EVQLVESGGGLVKPGGSLRLSCAASGFTFSGYPMSWVRQAPGKGLEWVSTISTGARHTYYPDSVKGRFTISRDNAKNSLYLQMNSLRAEDTAVYYCARHEGLRRGKYHSIMDYWGQGTLVTVSS VL: DIVMTQSPDSLAVSLGERATINCKSSQSIDYDGDSFLNWYQQKPGQPPKLLIYAASNRESGVPDRFSGSGSGTDFTLTISSLQAEDVAVYYCQQSNEDPYVFGQGTKLEIK
0.762 | 0.000229 | 301000 | hu1H9v2 (antibody, V domains shown, Humanized 1H9; captured by anti-human Fc in SPR) VH: EVQLVESGGGLVKPGGSLRLSCAASGFTFSGYPMSWVRQAPGKGLEWVSTISTGARHTYYPDSVKGRFTISRDNAKNSLYLQMNSLRAEDTAVYYCARHEGLRRGKYHSIMDYWGQGTLVTVSS VL: DIVLTQSPASLAVSPGQRATITCRASESVDYDGDSFINWYQQKPGQPPKLLIYAASNKDTGVPARFSGSGSGTDFTLTINPVEAEDTANYYCHQSNEDPYLFGQGTKLEIK
0.969 | 0.000259 | 267000 | hu1H9v3 (antibody, V domains shown, Humanized 1H9) VH: EVQLVESGGGLVKPGGSLRLSCAASGFTFSGYPMSWVRQAPGKGLEWVSTISTGARHTYYPDSVKGRFTISRDNAKNSLYLQMNSLRAEDTAVYYCARHEGLRRGKYHSIMDYWGQGTLVTVSS VL: DIVLTQSPASLAVSPGQRATITCRASESVDYDGDSFINWYQQKPGQPPKLLIYAASNKDTGVPARFSGSGSGTDFTLTINPVEAEDTANYYCHQSNEDPYVFGQGTKLEIK
1 | 0.000572 | 570000 | hu9C12v1 (antibody, V domains shown, Humanized 9C12; captured by anti-human Fc in SPR) VH: EVQLVESGGGLVKPGGSLRLSCAASGFTFSSYPMSWVRQAPGKGLEWVSTISTGGTYTYYPDSVKGRFTISRDNAKNSLYLQMNSLRAEDTAVYYCARQGPIYYGNYYYAMDYWGQGTTVTVSS VL: DIVMTQSPLSLPVTLGQPASISCRSSQSLVHSDGNTYLHWYQQRPGQSPKLLIYKVSNRFSGVPDRFSGSGSGTDFTLKISRVEAEDVGVYYCSQSTHVPYTFGGGTKVEIK
1.71 | 0.001 | 587000 | ch9C12 (antibody, V domains shown, also called chimeric 9C12) VH: EVKLVESGGGLVKPGGSLKLSCAASGFTFSSYPMSWVRQTPEKRLEWVATISTGGTYTYYPDSVKGRFTISRDNAKNTLYLQMSSLRSEDTAMYYCARQGPIYYGNYYYAMDYWGQGTSVTVSS VL: DIVMTQPPLSLPVSLGDQASISCRSSQSLVHSDGNTYLHWYLQRPGQSPKLLIYKVSNRFSGVPDRFSGSGSGTDFTLKISRVEAEDLGVYFCSQSTHVPYTFGGGTKLEIK
0.75 | 0.000313 | 418000 | ch23H8 (antibody, V domains shown, also called chimeric 23H8) VH: EVQLQESGGGLVKPGGSLKLSCAASGFTFNSYAMSWVRQTPEKRLEWVATISTGGSHTYYPDSVKGRFTISRDNAKNTLYLQMSSLRSEDTAMYYCARHGYLLYDGYYEWYFDVWGAGTTVTVSS VL: DIVLTQSPASLAVSLGQRATISCKASQSVDYDGHSFLNWYQQKPGQPPKLLIYAASNLESGLPARFSGSGSGTDFTLNIHPVEEEDAATYYCQQSTEDPPYTFGGGTKLEIK
